Measured values taken from article PMC6328252 (Chembiochem : a European journal of chemical biology, 2017).

Legend:
[1] = biological target: T1, PA1618 (Pseudomonas aeruginosa, UniProt Q9I3A4); experiment: X-ray crystal structure; type: biochemical
[2] = biological target: T1, PA1618; experiment: steady-state competitive inhibition of benzoyl-CoA hydrolysis; type: biochemical
[3] = tested on: CC(C)(COP(=O)(O)OP(=O)(O)OC[C@H]1O[C@@H](n2cnc3c(N)ncnc32)[C@H](O)[C@@H]1OP(=O)(O)O)[C@@H](O)C(=O)NCCC(=O)NCCSC(=O)c1ccccc1; experiment: steady-state kinetics; type: biochemical, Pseudomonas aeruginosa; conditions: pH 7.5; 25.0 °C
[4] = biological target: T1, PA1618; experiment: X-ray crystal structure; type: biochemical; remark: listed apart in the source
[5] = substrate: CC(C)(COP(=O)(O)OP(=O)(O)OC[C@H]1O[C@@H](n2cnc3c(N)ncnc32)[C@H](O)[C@@H]1OP(=O)(O)O)[C@@H](O)C(=O)NCCC(=O)NCCSC(=O)c1ccc(O)cc1; experiment: purified protein; type: biochemical, Pseudomonas aeruginosa; conditions: pH 7.5; 25.0 °C
[6] = substrate: CC(C)(COP(=O)(O)OP(=O)(O)OC[C@H]1O[C@@H](n2cnc3c(N)ncnc32)[C@H](O)[C@@H]1OP(=O)(O)O)[C@@H](O)C(=O)NCCC(=O)NCCSC(=O)/C=C/c1ccc(O)cc1; experiment: steady-state kinetics; type: biochemical, Pseudomonas aeruginosa; conditions: pH 7.5; 25.0 °C
[7] = substrate: CC(C)(COP(=O)(O)OP(=O)(O)OC[C@H]1O[C@@H](n2cnc3c(N)ncnc32)[C@H](O)[C@@H]1OP(=O)(O)O)[C@@H](O)C(=O)NCCC(=O)NCCSC(=O)c1cc(O)c2ccccc2c1O; experiment: steady-state kinetics; type: biochemical, Pseudomonas aeruginosa; conditions: pH 7.5; 25.0 °C
[8] = substrate: CCCCCC(=O)SCCNC(=O)CCNC(=O)[C@H](O)C(C)(C)COP(=O)(O)OP(=O)(O)OC[C@H]1O[C@@H](n2cnc3c(N)ncnc32)[C@H](O)[C@@H]1OP(=O)(O)O; experiment: steady-state kinetics; type: biochemical, Pseudomonas aeruginosa; conditions: pH 7.5; 25.0 °C
[9] = substrate: CC(C)(COP(=O)(O)OP(=O)(O)OC[C@H]1O[C@@H](n2cnc3c(N)ncnc32)[C@H](O)[C@@H]1OP(=O)(O)O)[C@@H](O)C(=O)NCCC(=O)NCCSC(=O)c1ccccc1; experiment: steady-state kinetics; type: biochemical, Pseudomonas aeruginosa; conditions: pH 7.5; 25.0 °C; remark: listed apart in the source

## CC(C)(COP(=O)(O)OP(=O)(O)OC[C@H]1O[C@@H](n2cnc3c(N)ncnc32)[C@H](O)[C@@H]1OP(=O)(O)O)[C@@H](O)C(=O)NCCC(=O)NCCSCC(=O)c1ccccc1 [Phenacyl-CoA]
[1]
  Ki: 35 ± 5 µM

## CCCCCCCCCCC(=O)SCCNC(=O)CCNC(=O)[C@H](O)C(C)(C)COP(=O)(O)OP(=O)(O)OC[C@H]1O[C@@H](n2cnc3c(N)ncnc32)[C@H](O)[C@@H]1OP(=O)(O)O [Undecanyl-CoA]
[2]; read-out: PA1618 Ki
  Ki: 3.4 ± 0.3 µM

## PA1618 (Pseudomonas aeruginosa PAO1; Q49A)
[3]
  Km: 5.0 ± 0.3 µM
  kcat: 0.022 ± 0.003 s⁻¹
  kcat/Km: 4400 M⁻¹ s⁻¹

## CC(C)(COP(=O)(O)OP(=O)(O)OC[C@H]1O[C@@H](n2cnc3c(N)ncnc32)[C@H](O)[C@@H]1OP(=O)(O)O)[C@@H](O)C(=O)NCCC(=O)NCCSCC(=O)c1ccc(O)cc1O [2,4-Dihydroxyphenacyl-CoA]
[2]
  Ki: 12 ± 1 µM

## CC(C)(COP(=O)(O)OP(=O)(O)OC[C@H]1O[C@@H](n2cnc3c(N)ncnc32)[C@H](O)[C@@H]1O)[C@@H](O)C(=O)NCCC(=O)NCCOC(=O)c1ccccc1 [Benzoyl-OdCoA]
[4]
  Ki: 19 ± 3 µM

B1: PA1618 (Pseudomonas aeruginosa PAO1) (protein)
chain: MSLWRQTPDLEQLNASQKNSIGDLLGIRFEAFDDESLTASMPVDSRTHQPFGLLHGGASVVLAESLGSMASYLCVDTSQYYCVGLEVNANHLRGLRSGRVTAVARAIHLGRTTHVWDIRLSGDDGKPSCIARLTMAVVPLAGRAG
[5]
  Km: 3.6 ± 0.3 µM
  kcat: 9.3 ± 0.2 s⁻¹
  kcat/Km: 3.1e+06 M⁻¹ s⁻¹
[6]
  Km: 2.7 ± 0.2 µM
  kcat: 2.5 ± 0.1 s⁻¹
  kcat/Km: 930000 M⁻¹ s⁻¹
[7]
  Km: 2.1 ± 0.1 µM
  kcat: 0.55 ± 0.01 s⁻¹
  kcat/Km: 280000 M⁻¹ s⁻¹
[8]
  Km: 20 ± 2 µM
  kcat: 0.11 ± 0.01 s⁻¹
  kcat/Km: 5200 M⁻¹ s⁻¹
[9]
  Km: 12 ± 1 µM
  kcat: 56 ± 1 s⁻¹
  kcat/Km: 4.6e+06 M⁻¹ s⁻¹
